From PMC13011415

Biological target: 1-acyl-sn-glycerol-3-phosphate acyltransferase alpha (AGPAT1), endogenous in human cells (human (endogenous in Huh7, HAP1, ERMS)) (UniProt Q99943)
Experiment: immunostaining of cells or tissue

Chain of UniProt Q99943 (Q99943 27-283): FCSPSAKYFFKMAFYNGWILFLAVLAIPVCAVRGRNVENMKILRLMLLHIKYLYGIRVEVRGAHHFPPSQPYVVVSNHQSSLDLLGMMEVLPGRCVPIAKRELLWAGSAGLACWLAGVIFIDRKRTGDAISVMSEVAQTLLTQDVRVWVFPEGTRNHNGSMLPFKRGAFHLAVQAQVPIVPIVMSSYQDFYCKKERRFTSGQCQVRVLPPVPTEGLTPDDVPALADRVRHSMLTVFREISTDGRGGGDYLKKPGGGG

Chikungunya virus (CHIKV) particles, sucrose gradient-purified, strain IND-06-Guj (complex)
reduction of CHIKV binding (MIFD) in AGPAT1 KO against WT HAP1 cells: 85%
